# Test results from publication PMC9457993.
# Where “and” joins values, the source holds several entries; their conditions need not be identical. Identical values can stand only once.
# What was measured:
# Liraglutide [1] = experiment: AF4-MALS (asymmetrical flow field-flow fractionation with UV, fluorescence, dRI and MALS detection); thermally stressed, aggregated API (APIaggr), 3 mg/mL in formulation, 60 uL injected; formulation buffer as mobile phase
# Liraglutide [2] = experiment: AF4-MALS (asymmetrical flow field-flow fractionation with UV, fluorescence, dRI and MALS detection); Liraglutide 6 mg/mL (API resuspended in water or formulation, FDF, Victoza, Saxenda), 30 uL injected; formulation buffer (disodium phosphate dihydrate, propylene glycol, phenol, water) as mobile phase; PES membrane 1 kDa cutoff; molar mass by MALS with dRI; n = 3
# Liraglutide [3] = experiment: SEC-MALS; HPLC-UV-dRI-MALS, Shodex Protein KW-802.5; mobile phase 1 g/L L-Arginine: Acetonitrile: acetic acid, 35:50:15 (results say 30% acetonitrile), isocratic 0.5 mL/min; Liraglutide FDF Lot #33387-18 and Saxenda Lot #JP54138, 6 mg/mL
# Liraglutide [4] = experiment: AF4-MALS (asymmetrical flow field-flow fractionation with UV, fluorescence, dRI and MALS detection); thermally stressed, aggregated API (APIaggr), 3 mg/mL in formulation, 60 uL injected; formulation buffer as mobile phase; remark: listed apart in the source
substance,measurement,setting,value
Liraglutide (peptide),stoichiometry N,Liraglutide [1],20 units
same,stoichiometry N,Liraglutide [2],5.2 units
same,relative abundance of monomer,Liraglutide [3],> 99.5%
same,stoichiometry N,Liraglutide [3],2 and 4
same,stoichiometry N,Liraglutide [4],> 20 units
